Data: patent US11407825B2, “NaPi2b-targeted polymer antibody-drug conjugates and methods of use thereof” (Mersana Therapeutics, Inc., priority 2018, dated 2022)

System: NaPi2b expressing tumors
Assay: Phase 1b study of XMT-1536: tumor response per RECIST version 1.1
Type: in vivo, human
Conditions: for decrease in diameter of target lesions: DL4A (20 mg/m^2)
From the text: The study presented herein is an open label, multi-center Phase 1b study of XMT-1536 administered as an intravenous infusion once every three or four weeks. The dose escalation (DES) part of the study will establish the maximum tolerated dose (MTD) or recommended Phase 2 dose (RP2D) for XMT-1536 in patients with a number of tumor types likely to express NaPi2b, with a focus on patients with platinum-resistant ovarian cancer and non-squamous non-small cell lung cancer (NSCLC). […] The RP2D may differ from the MTD and may take into account tolerability, pharmacokinetic and pharmacodynamic measures, and efficacy of XMT-1536 based on RECIST 1.1. After the first cycle, patients may continue to receive XMT-1536 until disease progression provided the drug is well-tolerated and patients continue to derive clinical benefit in the opinion of the Investigator. The DES segment of the study utilized an accelerated titration design. The first 3-week cycle of treatment constitutes the dose limiting toxicity (DLT) evaluation period. For the first two dose levels, a minimum of 1 patient was treated at each dose level. If this patient experiences a treatment-emergent adverse event of Grade 2 or higher, 2 additional patients will be added at this dose level, and the study will subsequently follow a 3+3 design, as described below. […] Starting with Dose Level 3, the study will follow a standard 3+3 design, with 3 patients enrolled initially at each dose level. […] However, in the event of 1 DLT, 3 additional patients will be enrolled at the same dose level. Any dose level with 2 or more DLTs will be considered to exceed the MTD and subsequent patients will be enrolled at lower dose level(s). After the first cycle, patients may continue to receive XMT-1536 until disease progression if the drug is well-tolerated and patients continue to derive clinical benefit in the opinion of the Investigator.
All adverse events will be graded according to the National Cancer Institute (NCI) Common Terminology Criteria version (CTCAE v4.03). The observation period for DLTs is 56 days, between Day 1 through end of Cycle 2 which includes the pre-dose assessments before receiving the Cycle 3 dose. In general, adverse events Grade ≥3 are DLTs with modifications for the following criteria: neutropenia hematologic toxicities, gastrointestinal toxicities, hepatic toxicities, and electrolyte imbalances. XMT-1536-related toxicity that delays initiation of Cycle 3 by more than 2 weeks, hospitalization to treat an infusion-related reaction, and any toxicity that prompts modification of the dose to be administered in Cycle 3 are also DLTs. Blood sampling will be performed to determine plasma PK parameters of XMT-1536, its release product auristatin F-HPA, and select metabolites. Testing for anti-drug antibodies (ADA) and neutralizing antibodies (nAb) will be performed. Tumor responses will be Investigator-assessed using Response Evaluation Criteria in Solid Tumors (RECIST), version 1.1, at the end of Cycle 2 and every 2 cycles thereafter.
In both segments of the study assessments with computerized tomography (CT) scans and RECIST version 1.1 criteria are performed at the end of Cycle 2 and at the end of every even-numbered cycle thereafter. Patients are continuously evaluated for adverse events, the use of concomitant medications, and the occurrence of infusion reactions in any cycle. Pharmacokinetic profiles of XMT-1536 and select release products/metabolites and the development of anti-drug antibodies are evaluated. RECIST version 1.1, is used to measure tumor response. The objective response rate (ORR—rate of complete response [CR] and partial response [PR]) and disease control rate (DCR—rate of CR, PR, and stable disease [SD]) will be measured for each cohort. Response duration, progression-free survival (PFS) and overall survival (OS) is estimated.
The primary analysis of efficacy is performed using both DES and EXP data. […]

[1] = All NSCLC, N 3, RECIST version 1.1
[2] = All Ovarian Cancer (OC), N 19, RECIST version 1.1
[3] = NSCLC ≥ 20 mg/m^2, N 2, RECIST version 1.1
[4] = OC + NSCLC ≥ 20 mg/m^2, N 18, RECIST version 1.1
[5] = OC ≥ 20 mg/m^2, N 16, RECIST version 1.1
[6] = OC ≥ 30 mg/m^2, N 7, RECIST version 1.1
[7] = ovarian cancer and lung adenocarcinoma, ≥20 mg/m^2 (N=18)

B1: XMT-1536: about 10-15 molecules of auristatin F-hydroxypropyl amide conjugated to a cysteine moiety of NaPi2b monoclonal antibody XMT-1535 via a PHF scaffold (conjugate, chains of the INN, looked up)
VH: QVQLVQSGAEVVKPGASVKMSCKASGYTFTGYNIHWVKQAPGQGLEWIGAIYPGNGDTSYKQKFRGRATLTADTSTSTVYMELSSLRSEDSAVYYCARGETARATFAYWGQGTLVTVSS
VL: DIQMTQSPSSLSASVGDRVTITCSASQDIGNFLNWYQQKPGKTVKVLIYYTSSLYSGVPSRFSGSGSGTDYTLTISSLQPEDFATYYCQQYSKLPLTFGQGTKLELK
modifications: auristatin F-hydroxypropyl amide via PHF scaffold
notes: about 10-15 molecules of auristatin F-hydroxypropyl amide conjugated to a cysteine moiety of NaPi2b monoclonal antibody XMT-1535 via a PHF scaffold
For B1, the “DCR (PR + SD)” value (All NSCLC, N 3) was 67%, the “DCR (PR + SD), patients” value (All NSCLC, N 3) was 2 and the PD [1] was 33%. The “PD, patients” value [1] was 1, the PR [1] was 0 (0%) and the “PR, patients” value [1] was 0 (0%). For the same molecule, the “DCR (PR + SD)” value (All Ovarian Cancer (OC), N 19) was 58%, the “DCR (PR + SD), patients” value (All Ovarian Cancer (OC), N 19) was 11 and the PD [2] was 42%. The “PD, patients” value [2] was 8, the PR [2] was 16% and the “PR, patients” value [2] was 3. For the same molecule, the “patients who reached partial remission” value (DL 4A) was “one”, the “DCR (PR + SD)” value (NSCLC ≥ 20 mg/m^2, N 2) was 100% and the “DCR (PR + SD), patients” value (NSCLC ≥ 20 mg/m^2, N 2) was 2. For the same molecule, the PD [3] was 0 (0%), the “PD, patients” value [3] was 0 (0%) and the PR [3] was 0 (0%). For the same molecule, the “PR, patients” value [3] was 0 (0%), the “DCR (PR + SD)” value (OC + NSCLC ≥ 20 mg/m^2, N 18) was 61% and the “DCR (PR + SD), patients” value (OC + NSCLC ≥ 20 mg/m^2, N 18) was 11. The PD [4] was 39%, the “PD, patients” value [4] was 7 and the PR [4] was 17%. The “PR, patients” value [4] was 3, the “DCR (PR + SD)” value (OC ≥ 20 mg/m^2, N 16) was 57% and the “DCR (PR + SD), patients” value (OC ≥ 20 mg/m^2, N 16) was 9. The PD [5] was 43%, the “PD, patients” value [5] was 7 and the PR [5] was 19%. For the same molecule, the “PR, patients” value [5] was 3, the “DCR (PR + SD)” value (OC ≥ 30 mg/m^2, N 7) was 71% and the “DCR (PR + SD), patients” value (OC ≥ 30 mg/m^2, N 7) was 5. For the same molecule, the PD [6] was 28%, the “PD, patients” value [6] was 2 and the PR [6] was 28%. The “PR, patients” value [6] was 2, the “dose response of best response by RECIST (waterfall plot)” value (change in tumor size by dose level) was “there appears to be a dose response” and the anti-tumor activity (conclusions) was “early signs of anti-tumor activity”. The objective responses (doses of 20 mg/m^2 and higher) was “Objective responses have been observed”, the “clinical activity based on objective responses and duration of treatment” value (doses of 20 mg/m^2 or higher) was “clinical activity was observed” and the DCR [7] was 61%. For the same molecule, the ORR [7] was 17%, the PRs [7] was 17% and the “PRs, patients” value [7] was 3. The SDs [7] was 44%, the “SDs, patients” value [7] was 8 and the disease control rate (patients treated with at least 12 mg/m^2, every three weeks, RECIST version 1.1) was 67%. The “decrease in diameter of target lesions” value (person, platinum-resistant high-grade serous ovarian cancer, end of Cycle 2) was 40%, the “decrease in diameter of target lesions” value (same patient, end of Cycle 3) was 75% and the “patients who reached nearly partial remission” value (starting at DL 5) was “two”. The “patients with stable disease (SD) as best response” value (ten patients with post-treatment restaging scans, as of February 2019) was 9 and the “outcome by dose level (swimmers plot)” value (time on study by dose level and tumor type) was “At lower doses the majority of patients came off study because of progressive disease, but starting at DL4, most patients had stable disease”.
